Measured values published in US20250147051A1, “METHOD FOR DETECTING A TAU PROTEIN IN A SALIVA SAMPLE” (GTINVENT LIMITED, priority 2022, published 2025).

How the values were obtained:
[1] = tested on: tau; assay: Capture ELISA of transgenic mouse plasma; details: Line66 transgenic model; detection scAb with S1D12 mAb capture
Description: Plasma samples from WT, L1, L66+/− and L66+/+ of various ages (1.5-9 months) were taken as described. Mice were terminally anaesthetized using an overdose of sodium pentobarbital and blood was collected through cardiac puncture through a Plastipak syringe pre-rinsed with heparinised saline heparin (10 U/ml) (Heparin sodium salt; Sigma-Aldrich) and transferred into a plastic vial containing lithium heparin anticoagulant (Sarstedt Ltd.) Blood samples, kept on ice for no more than 30 minutes, were centrifuged to obtain plasma at 2000×g for 5 minutes at 6° C. Plasma samples were stored at −20° C.
For mouse plasma capture ELISA, 100 μL capture mAb was coated to the bottom of a black nunc 96 well ‘maxisorp’ plate at 2.5 μg/ml and incubated for 1 hour at 37° C. After washing and blocking as normal, several known standard solutions were set up in triplicate starting at 20 ng/ml of the desired protein before double diluted in the remaining wells. Mouse samples were added to wells in duplicate with a blank in between each sample group. Line1 plasma was diluted 1:10 before addition to plate to account for its high concentration while other samples were diluted 1:2 to account for potential matrix effects. […] The ELISA was developed using SuperSignal ELISA Femto Substrate (Thermo Scientific) and total luminescence was read on Clariostar Plus plate reader (BMG Labtech). […]

[2] = tested on: tau protein; assay: Capture ELISA of transgenic mouse brain lysates; details: S1D12 mAb capture, label = detection scAb, WT, L1, L66+/- and L66+/+
Description: Mouse brain lysates were prepared from wildtype, Line 1, Line 66+/+ and Line 66+/− (Melis et al., 2015, all surplus from Charles River, part of study R0144). All animals were female, 7-8 months old except Line 66+/+ which were 5 months old. […] The L1 cDNA construct (FIG. 23) contains human tau cDNA coding for amino acid residues 296-390 with a signal sequence and related sequences in a murine Thy-1 expression cassette. For brain lysate preparation, half brains were sectioned into four and the individual sections were homogenised in 400 μl of ice cold RIPA buffer (Cell signalling Technology) containing protease and phosphatase inhibitors. Total protein concentrations for individual samples were established by BCA-assay and each sample was subsequently diluted to 1 mg/ml for future experiments.
For capture ELISA, 100 μL S1D12 capture mAb was used to coat a nunc 96 well Maxisorp plate at 1 μg/ml and incubated for 1 hour at 37° C. Plate was washed as previously and then blocked for 1 hour at 37° C. in 2% MPBS. Brain homogenate samples (50 ng total protein) from each mouse type were added to the first wells and double diluted across the plate in PBS. These samples were left to incubate at RT for 1 hour. Various detection scAbs encompassing epitopes of interest were then added to the plate at 1 μg/ml and incubated for 1 h at RT. Secondary antibody used was anti-HuCk HRP and the assays were developed as described previously. Using S1D12 mAb capture and two separate scAb detectors, S-1G2 (FIG. 24A) and C-B7 (FIG. 24B), it was possible to differentiate between L1 and L66 samples and the wild type.

[3] = tested on: tau; assay: Western blot of mouse brain homogenates (WT, L66+/+, L1+/+); details: 20 μg brain homogenate protein, 5-month-old WT, L1+/+ mice
Description: Protein equivalent to 20 μg from each brain extract was separated using 4-20% bis-tris gels and run in 1×MES buffer. […] A clear band is visible in the lanes containing L66^+/+ samples, but no other bands are detectable (WT or L1^+/+). […] Once again, a band having relative mobility of 65 kDa is visible in the L66 sample with no other reactive bands present.
This band most likely corresponds to endogenous mouse tau which is of a similar size. In the L66^+/+ samples, a second band running at approximately 68 kDa is also detected. The presence of numerous other bands indicates proteolytic truncation of tau within brain homogenates.

[4] = tested on: hT40; assay: Binding ELISA with truncated tau proteins and 13mer peptide libraries for epitope mapping of anti-tau scAbs; set-up: species or system human; details: residue numbers of hT40
Description: A series of binding ELISA was performed using various truncated versions of the tau protein and 13mer peptide libraries spanning the entire hT40 molecule for mapping the epitopes of anti-tau scAbs (Full list of protein antigens used is given in Table 14). In general, ELISA plates were coated with 1 μg/ml hT40 or dGA or dGAE or other truncated versions of the protein and in the case of biotinylated peptides, plates were coated with 5 μg/ml Streptavidin followed by 1 μg/ml biotinylated peptide. The plates were blocked with 2% MPBS and scAb samples added at desired starting concentrations and double diluted across the plate. Binding was detected using anti-Human C Kappa HRP conjugated secondary antibody and the resulting immunoreaction was developed and absorbance values measured as described above.
Selected E specific scAbs and their specific binding to dGAE is shown below (FIG. 8A-E).
Similarly, dGA binding ‘NS’, ‘S’ and ‘M’ group scAbs were subjected to further antigen binding ELISA using shorter tau proteins and biotinylated 13mer peptides as shown below (FIG. 10A-F) and (FIG. 11A-R).

[5] = target: dGA (Homo sapiens, UniProt P10636); assay: Biacore X100 SPR binding kinetics of anti-tau scAbs (scAb captured via HuCk), analyte dGA; details: lead scAbs
Description: Surface plasmon resonance (SPR) is widely regarded as the gold standard for real time measurement of protein-protein interactions such as antibody binding. All SPR experiments were carried out using a Biacore X100 machine and HBS EP+ running buffer (GE Healthcare). A ‘capture’ method was followed for affinity measurements, where an anti-human constant kappa chain (HuCk) antibody was conjugated to the surface of a CM5 sensor chip using an amine coupling kit and scAb molecules were immobilised via their HuCk domain. Amine coupling is a very common approach for immobilising the ligand to the chip surface. The chip surface has a dextran matrix derivatised with carboxyl groups, which after activation with N-hydroxysuccinimide (NHS) and 1-ethyl-3-(3-dimethylaminopropyl) carbodiimide (EDC), form reactive succinimide esters which allows the covalent capturing of the ligand via any available primary amine groups (e.g. Lysine) on the ligand (in this case anti-HuCk antibody). The capture antibody was diluted 1/100 in 10 mM Sodium acetate buffer pH 5.0 and passed over the activated chip surface for a period of at least 420 s. Final ligand immobilisation levels over 12,000 RU were deemed to be satisfactory.
Following immobilisation, the level of each scAb to be captured was identified using the standard SPR equation with a theoretical RMax of 100 RU. Analyte MW refers to the molecular weight of hT40 or dGA/dGAE molecules, while ligand MW refers to the molecular weight of the scAbs tested. RLis the desired capture level and S refers to the stoichiometric ratio:
The scAb to be tested was added only to flow cell 2 so that flow cell 1 could act as a control to subtract any interaction with the analyte and the chip surface. Both single and multi-cycle runs were utilised using wizards developed in the Biacore X100 control software which are both accepted methods of kinetic analysis (Karlsson, R., et al. Analyzing a kinetic titration series using affinity biosensors (2006) Analytical Biochemistry 349:136-47). The multi-cycle protocol was as follows-Three start-up cycles composed of an initial capture, to the desired level, of the scAb to be tested was performed followed by a 30 s injection of glycine buffer pH 2.0 after each cycle to regenerate the chip surface. The regeneration step removed any captured scAb whilst leaving the capture antibody intact and able to repeat the capture for the next cycle. Following three start-up cycles increasing concentrations (0.15625 nM-100 nM) of the target to be tested were added to the chip surface after the desired scAb capture. The target was added for a 120 s association period and 420 s dissociation period followed by another regeneration, 30 s injection of glycine buffer pH 2.0 in between each cycle.
The single cycle kinetics protocol was similar and utilised the same level of scAb capture. Three start-up cycles were used followed by 5 increasing concentrations of the analyte (6.25 nM-100 nM) for an association period of 120 s followed by a dissociation period of 420 s for each concentration. In single cycle kinetics the regeneration step was performed only after the final analyte concentration was added. Binding responses were analysed in Biacore X100 evaluation software and data fitted to a 1:1 binding model to obtain kinetic and affinity characterisation.

[6] = tested on: plasma tau; assay: 3-step Simoa assays of human plasma (AD/MCI vs healthy control / CU); details: label = capture antibody; CA4 with BT2 detector; BT2 or HT7 with S1D12 or S1G2 detectors
Description: Human plasma samples were sourced from the commercial supplier Logical Biological Ltd. Healthy control (HC, n=12) and samples from individuals with a diagnosis of AD or mild cognitive impairment (AD/MCI, n=42) were aliquoted into low bind microfuge tubes and stored at −80° C.
The Simoa® experiments used for plasma screening utilised a 3-step protocol optimised for use with plasma samples. A standard curve (540 pg/ml−0.7 pg/ml) was created by spiking recombinant hTau40 into Tau 2.0 diluent and triple diluting. Plasma samples were diluted 1:100 and added in duplicate to the Simoa® plate followed by the addition of respective capture beads. Different antibody pairings used for plasma screening is explained in Table 28. In general, the capture antibody coated beads are mixed with diluted plasma samples, added to the plates and incubated for 30 min at 30° C. with shaking. Following the incubation, the plates were washed using the Simoa® plate washer before the addition of 0.2 μg/ml biotinylated detector antibody which was left to incubate as before for 10 min. The plates were then washed again before the addition of SBG and a final 10 min incubation. After the final incubation and wash steps the plates were transferred to the Simoa® reader and plasma tau concentrations generated against a 4-parameter fit curve. […]

Chain of dGA (P10636 614-707): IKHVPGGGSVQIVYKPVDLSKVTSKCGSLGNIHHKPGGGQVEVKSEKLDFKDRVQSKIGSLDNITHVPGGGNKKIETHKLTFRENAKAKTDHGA

B1: CB7: anti-tau clone, SEQ ID NO: 364 (protein)
scFv: QVQLQESGPSLVKPSQTLSLTCTVSGFSLTNYRVGWVRQAPGKALEWVSNIRSGGTTWYNPALKSRLSITADTSKSQVSLSLSSVTTEDTAVYYCARDSSGDLYAYDYWGPGLLVTVSSEGKSSGASGESKVDDQAVLTQPSSVSRSLGQSVSMTCSGSSSNVGYGNYMAWFQQVPGSAPKLLIYGATSRASGVPDRFSGSRSGNTATLTISSLQAEDEADYYCASYDSTSGGVFGSGTRLTVLG
modifications: CB7 amino acid sequence
[1]
  cross-reaction with endogenous mouse tau protein: does not cross react with endogenous mouse tau protein
[2]; listed as C-B7 scAb
  detection of tau in mouse brain homogenate: hT40 tau was specifically detected in L66 samples
[2]; listed as CB7 scAb
  detection of tau in mouse brain homogenate: can specifically detect human tau in Line66 homozygous and heterozygous samples
[3]
  Western blot reactivity: specificity for human tau

B2: CE2: anti-tau clone referred to as CE2 or E1B8, SEQ ID NO: 366 (protein)
scFv: QVQLQESGPSLVKPSQTLSLTCTVSGFSLTNYPVGWVRQAPGKALEWIGNIENDGSANYASALKSRLSITRDTSKNQVSLSLSSATTEDTAVYYCGREFGGSDGYTYFVDIDYWGPGLLVTVSSEGKSSGASGESKVDDQAVLTQPSSVSKSLGQSVSITCSGSSSNVGYGNYVSWFQQVPGSAPKILIYGATSRASGVPDRFSGSRSGNTATLTITSLQAEDEADYYCASYDGSSSGVFGSGTRLTVLG
modifications: CE2/E1B8 amino acid sequence
[4]
  Tau proteins/fragments with positive scAb reactivity: 297-390 (dGA), 297-391 and (dGAE), 313-336
[5]; Table 24
  ka: 137000 M⁻¹ s⁻¹
[5]; Table 24, dissociation rate
  dissociation rate constant (kd): 0.00242 s⁻¹

B3: CA4: anti-tau clone, SEQ ID NO: 368 (protein)
chain: QVQLQESGPSLVKPSQTLSLTCTVSGFSLTSYSVYWVRQAPGQALEWISIMYASGRVDYNPALKSRLSITRDTSKSQFSLSLSSVTTEDTAVYYCTRGIENWGPGLLVTVSSEGKSSGASGESKVDDDIQVTQSPSSLSASLTERVSITCRTSQSVNNYLSWYQQKPGQAPKLLIYYATRLYTDVPSRFSGSGSGTDYTLTITSLEADDTATYYCLQYDSTPLAFGGGTNVEIK
modifications: CA4 amino acid sequence
[6]
  detection of tau in human plasma: high levels of Core/Proline tau is detected in cognitively unimpaired (CU) samples only
